According to US6335019B1, “Methods for treating sensitivity to protein allergen using peptides which include a T cell epitope recognized by a T cell receptor specific for the protein allergen” (Immulogic Pharmaceutical Corp., priority 1989, dated 2002):

How the values were obtained:
Format in all cases: binding
[1] = test system: goat anti-Amb a I antibody; assay: Western blot of E. coli-expressed recombinant Amb a I / Amb a II with goat anti-Amb a I antibody (FIG. 19)
Protocol: Furthermore, full-length and truncated cDNAs encoding several members of the Amb a I multigene family, as well as Amb a II, were cloned in-frame into the expression vector pTrc99 (Amann et al. Gene, 69:301-315, (1988)) and transformed into the JM109 host. Expression of recombinant Amb a I and Amb a II protein was induced by 1 mM isopropyl-β-D-thiogalactopyranoside, cells were harvested, lysozyme treated, sonicated and insoluble inclusion bodies recovered by a low speed centrifugation. Recombinant Amb a I and Amb a II protein present in the recovered pellet was solubilized in buffer containing 8M urea, 50 mM Tris HC1 pH8.0, 50 mM NaCl, 1 mM EDTA, 1 mM dithiothreitol, 1 mM phenylmethylsulfonyl fluoride. After solubilization, the crude urea lysate was dialyzed at 4° C. against PBS. […] This antigenic cross-reactivity is consistent with the observed sequence homology of the cDNAs (see FIG. 16).
Isoelectric focusing was done on a Hoeffer gel apparatus with 15 μg of crude soluble pollen protein. The gel consisted of 7.5% acrylamide with 3.5% Pharmalytes pH 4.5-5.3 (Pharmacia) and 3.5% Ampholines pH 3.5-10 (LKB), run at 13W for 3.5 hours until a constant voltage was reached. The gel section was placed on a slab of 10% acrylamide SDS-PAGE and electrophoresed for 3.5 hours at 40 mA according to the protocol cited. The proteins were transferred overnight in phosphate buffer to 0.1 micron nitrocellulose (Schleicher and Schuell) at 0.2A. The blot was rinsed in blot solution (25 mM Tris-CHl pH 7.5, 0.171 M NaCl, 0.05% Tween-20; Sigma). The first antibody incubation was overnight at room temperature with a […] of goat anti-Amb a I IgC (obtained from Dr. David Marsh) in blot solution. The excess first antibody was removed with three 15 minute rinses with blot solution. The second antibody was a 1:2,500 dilution of biotinylated swine anti-goat IgG (Boehringer-Manneheim) in blot solution for two hours. The blot was then rinsed with blot solution three times for 15 minutes and incubated for 1 hr in blot solution with 2 μCi I^125 streptavidin (Amersham). The blots were rinsed with blot solution until the waste wash was down to background. The blot was then exposed to film at —80° C. overnight. In the case of one-dimensional SDS-PAGE Western blots (FIGS. 17, 19 and 20) the isoelectric focusing step was omitted. When human sera was used to probe the Western blots (FIGS. 17 and 20), 10% human plasma in 1% milk in blot solution was incubated overnight with the blot prior to using as second antibody biotinylated goat anti-human IgE.

[2] = test system: rabbit antisera directed against an Amb a II sequence (amino acid 326-338; RAE 50. K); assay: Western blot of recombinant proteins with monospecific anti-peptide antisera against RAE 50. K; settings: Western blots, data not shown
Description: Proteins or peptides encoded by the cDNA of the present invention can be used, for example, as “purified” allergens. Such purified allergens are useful in the standardization of allergen extracts which are key reagents for the diagnosis and treatment of ragweed allergy. Furthermore, by using peptides based on the sequences listed in FIGS. 2 through 16, anti-peptide antisera or monoclonal antibodies can be made using standard methods. Such reagents can be specifically directed against individual isoforms of Amb a I or Amb a II (i.e., directed against divergent regions/epitopes of the molecule) or can be specific for all forms Amb a I or Amb a II (i.e, directed against common sequences/epitopes). These sera or monoclonal antibodies, directed against Amb a I or Amb a II, can be used to standardize allergen extracts. One such monospecific anti-peptide antisera has already been successfully produced.

[3] = test system: rabbit anti-Amb a I polyclonal antibody; assay: Western blot with rabbit anti-Amb a I polyclonal antibody (FIG. 17)
Description: As is also represented in FIG. 1A, rabbit polyclonal antibodies were produced using the King Antigen E preparation. […] These antibodies were also shown, using a similar technique, to bind to the affinity purified Amb a I described previously (FIG. 17).
It is clear from the antibody reactivity that the 4B5/B7 affinity purified Amb a I has a recognition pattern similar to that of the Amb a I of pollen and skin test reagent with both rabbit polyclonal anti-Amb a I and JB1E3-4 anti-Amb a I monoclonal antibody (FIG. 17).
Affinity purified Amb a I was electrophoresed, Western transferred (Towbin et al., Proc. Natl. Acad. Sci. USA, 76:4350 (1979)) and probed with a variety of antibodies, including IgE from an allergic patient (FIG. 17). In pollen extract Amb a I is not only present as an intact 38-KD species, but also characterized by its component 26KD alpha chains and 12-KD beta chains which are formed by enzymatic cleavage. The intact 38-KD species and the alpha chain are clearly detected using rabbit anti-Amb a I, polyclonal affinity purified anti-RAE 16 and monoclonal anti-Amb a I JBIE3-4 (FIG. 17); RAE 16 peptide has the sequence RTDKDLLENGAIC derived from amino-acids 343-353 of Amb a IB, FIG. 16). […]

| Molecule | Binding by goat anti-Amb a I antibody (in words) [1] | Binding by rabbit anti-RAE 50. K antisera (in words) [2] | Binding by rabbit anti-Amb a I polyclonal antibodies (in words) [3] |
| --- | --- | --- | --- |
| Amb a IC: E. coli expressed recombinant Amb a IC, used as crude bacterial lysate (protein) LYFTLALVALLQPVRSAEGVGEILPSVNETRSLQACEALNIIDKCWRGKADWENNRQALADCAQGFAKGTYGGKWGDVYTVTSNLDDDVANPKEGTLRFAAAQNRPLWIIFKNDMVINLNQELVVNSDKTIDGRGVKVEIINGGLTLMNVKNIIIHNINIHDVKVLPGGMIKSNDGPPILRQASDGDTINVAGSSQIWIDHCSLSKSFDGLVDVTLGSTHVTISNCKFTQQSKAILLGADDTHVQDKGMLATVAFNMFTDNVDQRMPRCRFGFFQVVNNNYDRWGTYAIGGSSAPTILCQGNRFLAPDDQIKKNVLARTGTGAAESMAWNWRSDKDLLENGAIFVTSGSDPVLTPVQSAGMIPAEPGEAAIKLTSSAGVFSCRPGAPC | binds specifically | not | – |
| Amb a IB: E. coli expressed recombinant Amb a IB, used as crude bacterial lysate (protein) LYFTLALVTLLQPVRSAEDVEEFLPSANETRRSLKACEAHNIIDKCWRCKADWANNRQALADCAQGFAKGTYGGKHGDVYTVTSDKDDDVANPKEGTLRFAAAQNRPLWIIFKRNMVIHLNQELVVNSDKTIDGRGVKVNIVNAGLTLMNVKNIIIHNINIHDIKVCPGGMIKSNDGPPILRQQSDGDAINVAGSSQIWIDHCSLSKASDGLLDITLGSSHVTVSNCKFTQHQFVLLLGADDTHYQDKGMLATVAFNMFTDHVDQRMPRCRFGFFQVVNNNYDRWGTYAIGGSSAPTILSQGNRFFAPDDIIKKNVLARTGTGNAESMSWNWRTDRDLLENGAIFLPSGSDPVLTPEQKAGMIPAEPGEAVLRLTSSAGVLSCHQGAPC | binds specifically | not | – |
| Amb a IA: full-length recombinant Amb a IA, amino acid 10-398, E. coli expressed, used as crude bacterial lysate (protein) LYFTLALVTLLQPVRSAEDLQEILPVNETRRLTTSGAYNIIDGCWRGKADWAENRKALADCAQGFGKGTVGGKDGDIYTVTSELDDDVANPKEGTLRFGAAQNRPLWIIFERDMVIRLDKEMVVNSDKTIDGRGAKVEIINAGFTLNGVKNVIIHNINMHDVKVNPGGLIKSNDGPAAPRAGSDGDAISISGSSQIWIDHCSLSKSVDGLVDAKLGTTRLTVSNSLFTQHQFVLLFGAGDENIEDRGMLATVAFNTFTDNVDQRMPRCRHGFFQVVNNNYDKWGSYAIGGSASPTILSQGNRFCAPDERSKKNVLGRHGEAAAESMKWNWRTNKDVLENGAIFVASGVDPVLTPEQSAGMIPAEPGESALSLTSSAGVLSCQPGAPC | binds specifically | not | – |
| affinity purified Amb a I: protein affinity purified from pollen extract with monoclonal antibody 4B5/B7 (protein) AEDLQEILPVNETRRLTTSGAYNIIDGCWRGKADWAENRKALADCAQGFGKGTVGGKDGDIYTVTSELDDDVANPKEGTLRFGAAQNRPLWIIFERDMVIRLDKEMVVNSDKTIDGRGAKVEIINAGFTLNGVKNVIIHNINMHDVKVNPGGLIKSNDGPAAPRAGSDGDAISISGSSQIWIDHCSLSKSVDGLVDAKLGTTRLTVSNSLFTQHQFVLLFGAGDENIEDRGMLATVAFNTFTDNVDQRMPRCRHGFFQVVNNNYDKWGSYAIGGSASPTILSQGNRFCAPDERSKKNVLGRHGEAAAESMKWNWRTNKDVLENGAIFVASGVDPVLTPEQSAGMIPAEPGESALSLTSSAGVLSCQPGAPC | – | – | bind |
